Data taken from patent publication US8563516B2, “Foxp3 peptide vaccine” (OncoTherapy Science, Inc., priority 2007, dated 2013).
Entries after “also recorded” stand apart in the source; their conditions may differ.

Key:
peptide pulsed T2 cells [1] = experiment: IFN-gamma ELISPOT: CTL line induced with Foxp3-9-252-WT against T2 cells pulsed with substituted peptide; assay type: cell-based, human; conditions: FIG. 7A, listed as Foxp3-9-252-9V
Procedure: IFN-gamma ELISPOT assay was performed using CTL line induced with Foxp3-9-252-WT peptide as responder cells and T2 cells pulsed Foxp3-9-252-WT or Foxp3-9-252-9V peptide as stimulator cells, respectively. T2 cells without peptide pulse were prepared as control. […] IFN-gamma ELISA assay was performed using CTL line induced with Foxp3-9-252-WT peptide as responder cells (1×10^5 cells/well) and Foxp3-9-252-WT (-solid circle-), Foxp3-9-252-9V (-open circle-) or HIV-A02 (-solid triangle-) peptide pulsed T2 cells as stimulator cells (1×10^4 cells/well). Peptide pulse of stimulator cells was conducted at 37 degree Celsius for 2 hours in each kind of peptide and peptide concentration.
(§1) To examine the specific CTL activity, IFN-gamma ELISPOT assay and IFN-gamma ELISA were performed. Briefly, peptide-pulsed A24-LCL, T2 cell (1×10^4/well) or the cells endogenously expressing Foxp3 and HLA molecule was prepared as a stimulator cells. Cultured CTL lines in 48 wells were used as a responder cells. IFN-gamma ELISPOT assay and IFN-gamma ELISA were performed under manufacture procedure.
And then the present inventers examined whether peptide-pulsed stimulator cells using these substitutions were recognized by CTLs generated with Foxp3-9-252-WT peptide.

HLA-A2 molecule = target: T1, HLA-A2 molecule (Homo sapiens, UniProt P04439, D140Y/D185E/D98H/E176V/E277Q/G131W/G231S/I119V/I121R/I166T/I218V/L300P/L318F/N151K/N90K/P208A/P217A/Q86G/Q94H/R138H/R169H/T345S); experiment: CTL induction with Foxp3-9-252 substitutions restricted HLA-A*0201; assay type: cell-based; conditions: FIG. 7C; for IFN-gamma production compared with the control: positive wells
T1 construct: peripheral blood mononuclear cells (PBMCs) isolated from normal volunteer (HLA-A*2402 and/or HLA-A*0201); endogenous in cells; host or cells: monocyte-derived dendritic cells of HLA-A*0201 volunteers; T2 cells as stimulators in the read-out
Procedure: (§2) In FIG. 7C CTLs could be induced by stimulation with Foxp3-9-252 substitutions targeted HLA-A2 molecule. CTLs for all substituted peptides targeted HLA-A2 molecule were generated in the way as described in “Materials and Methods”. […] CTL line induced with Foxp3-9-252-9V peptide was used as responder cells. T2 cells incubated with Foxp3-9-252-9V (-solid circle-) or Foxp3-9-252-WT (-open circle-) peptide and without any peptide (-open square-) were used as stimulator cells in this assay (1×10^4 cells/well).
Monocyte-derived dendritic cells (DCs) were used as antigen-presenting cells (APCs) to induce CTL responses against peptides presented on HLA. DCs were generated in vitro as described elsewhere (Horiguchi S. et al. Cancer Res. 59:2950-6). Specifically, peripheral blood mononuclear cells (PBMCs) isolated from normal volunteer (HLA-A*2402 and/or HLA-A*0201) with Ficoll-Plaque (Pharmacia) solution were separated by adherence to plastic tissue culture dish (Becton Dickinson) so as to enrich them for the monocyte fraction. The monocyte-enriched population was cultured in the presence of 1000 U/ml of GM-CSF (R&D System) and 1000 U/ml of IL-4 (R&D System) in AIM-V medium (Invitrogen) containing 2% heat-inactivated autologous serum (AS). After 7 days in the culture, the cytokine-generated DCs were pulsed with 20 mcg/ml of the synthesized peptides in the presence of 3 mcg/ml of beta2-microglobulin for 4 hrs at 20 degrees C. in AIM-V medium. These peptide-pulsed DCs were then inactivated with mitomycin C (MMC) (30 mcg/ml for 30 mins) and mixed at a 1:20 ratio with autologous CD8+ T cells, obtained by positive selection with CD8 Positive Isolation Kit (Dynal). These cultures were set up in 48-well plates (Corning); each well contained 1.5×10^4 peptide-pulsed DCs, 3×10^5 CD8+ T cells and 10 ng/ml of IL-7 (R&D System) in 0.5 ml of AIM-V/2% AS. Three days later, these cultures were supplemented with IL-2 (CHIRON) to a final concentration of 20 IU/ml. On day 7 and 14, the T cells were further restimulated with the peptide-pulsed autologous DCs. The DCs were prepared each time through the same procedure described above. CTL activity was tested against peptide-pulsed A24LCL cells or T2 cells after the 3rd round of peptide stimulation on day 21.
as §1
(§3) On the other hand, the present inventers attempted the induction of CTLs using all substitutions restricted HLA-A*0201 including Foxp3-9-252-9V peptide. […] After CTL line induced by stimulation with Foxp3-9-252-9V was established by in vitro expansion, the CTL activity was determined by using stimulator cells pulsed with Foxp3-9-252-WT or Foxp3-9-252-9V peptide.

peptide pulsed T2 cells [2] = experiment: CTL line induced with Foxp3-9-252-9V against peptide-pulsed T2 cells; assay type: cell-based, human; conditions: FIG. 7D, listed as Foxp3-9-252-9V
Procedure: as §2, §3

CTL induction by stimulation with substituted peptide (HLA-A2 molecule): CTLs were induced | IFN-gamma production compared with the control (HLA-A2 molecule; listed as Foxp3-9-252-9V): showed IFN-gamma production | IFN-gamma production compared with the control (HLA-A2 molecule; listed as Foxp3-A02-9-252-9V): peptide-dependent IFN-gamma production
Sequence: KLSAMQAHV (peptide vaccine) [SEQ ID NO 95]
IFN-gamma production of Foxp3-9-252-WT induced CTLs against peptide pulsed T2 cells (peptide pulsed T2 cells [1]): produced IFN-gamma; also recorded: recognize the cells presenting Foxp3-9-252-9V peptide on HLA-A2 molecule | recognition of Foxp3-9-252-WT pulsed stimulator cells by CTLs induced with substituted peptide (peptide pulsed T2 cells [2]): recognized stimulator cells pulsed Foxp3-9-252-WT peptide as equal to that pulsed Foxp3-9-252-9V peptide; also recorded: recognize stimulator cells coated with Foxp3-9-252-WT peptide
